Laboratory results reported in US20220347267A1, “METHODS TO IMPROVE PATIENT RESPONSE TO IMMUNE CHECKPOINT INHIBITORS AND FUNCTIONAL TESTS TO PREDICT RESPONSE” (Biomarker Strategies, LLC, priority 2019, published 2022).

How the values were obtained:
Experiment in all cases: PD-L1 western blot after modulators (EM and MTAs)
Format in all cases: cell-based, human
H1299 cells = conditions: NSCLC H1299, 30 minutes, 3 hours, 24 hours
Text: (§1) Cell lines were acquired from ATCC, Sigma, or DSMZ. Human non-small cell lung carcinoma (NSCLC) cell lines H292 (ATCC no. CRL-1848.), H1299 (ATCC no. CRL-5803), H520 (ATCC no. CRL-5811), CALU6 (ATCC no. HTB-56), H1975 (ATCC no. CRL-5908), H460 (ATCC no. HTB-177), H2126 (ATCC no. CCL-256), H1650 (ATCC no. CRL-5883), and H2087 (ATCC no. CRL-5922) were used for this experiment along with head and neck squamous cell carcinoma (HNSCC) cell lines BHY (DSMZ ACC 404), CAL27 (ATCC no. CRL-2095), KYSE410 (Sigma), and A253 (ATCC no. HTB-41), melanoma cell lines A375 (ATCC no. CRL-1619), COL0853 (Sigma), and MM127 (Sigma) pancreatic cancer cell lines BXPC3 (ATCC no. CRL-1687), colorectal cancer cell lines […], HCT116 (ATCC no. CCL-247EMT), and breast cancer cell lines BT549 (ATCC no. HTB-122), BT20 (ATCC no. HTB-19), and T47D (ATCC no. HTB-133). Cells were maintained in manufacturer-recommended conditions at 37° C. inside humidified 5% CO2 incubators. Sub-cultivation and harvesting for all cell lines were performed using Accutase (GIBCO Life Technologies; cat. no. A1110501) at 37° C. for 10 minutes. Cell viability was measured using trypan blue exclusion staining in conjunction with the Countess II Automated Cell Counter (Thermo Fischer Scientific; cat. no. AMQAX1000). Measurements were made in duplicate and the average number of viable cells was recorded prior to experiments.
(§2) Enhancer Molecule and Therapies: IFNγ, (10 ng/ml; Sigma Aldrich, cat.no 11040596001), TNFα (10 ng/ml; BD Biosciences cat. no. 554618), Osimertinib (100 ng/ml; Selleckchem cat.no. S7297), Everolimus (100 ng/ml; Selleckchem cat.no S1120), GSK458 (10 ng/ml; Selleckchem cat. no. S2658), TNFb (50 ng/ml; Sigma Aldrich cat. no.), GSK795 (1,000 ng/ml; Selleckchem cat. no. S7492), IL-12 (50 ng/ml; Sigma Aldrich SRP3073), GM-CSF (50 ng/ml; Sigma Aldrich cat. no. G5035), IL-1a (1 ng/ml; Sigma Aldrich cat. no. 12778-), IL-6 (50 ng/ml; Sigma Aldrich), IL-17 (100 ng/ml; Sigma Aldrich cat. no. SRP3080), TGFb (1 ng/ml; Sigma Aldrich cat. no. T7039), and IL-10 (50 ng/ml; Sigma Aldrich cat. no. SRP3071) were administered to cell lines for various times including 30 minutes, 3 hour, and 24 hour time intervals prior to cell lysis and protein extraction.
(§3) To determine the effects of the aforementioned molecules on the modulation of PD-L1, we selected various NSCLC, HNSCC, breast cancer, melanoma, colorectal cancer, and pancreatic cancer cell lines as examples. Other diseases or cell lines could be used readily as could more complex samples such as cells isolated from xenografts and clinical samples. Cells were plated, for three different time points (30 minutes, 3 hours, and 24 hours), inside 6-well petri dishes with 2 mL of appropriate medium. Plates were incubated for 24 hours in 5% CO2 incubators at 37° C. After 24 hours, each 6-well plate was washed with PBS (Gibco Life Technologies, cat. no. 10010023) followed by fresh media being added along with each cell line's vehicle control or appropriate modulator for each specific time point, and were placed in CO2 incubators until their modulation time point was reached. Other conditions can be readily used, such as processing on automated systems such as SnapPath. At the end of each time point, while keeping plates on ice, cell lysis was conducted by aspirating culture medium from each plate, washing of each plate three times with 5 ml of cold PBS (Gibco Life Technologies, cat. no. 10010023) and culminated with the addition of cold 1× lysis buffer containing (Cell Signaling, cat. no. 9803 S) protease inhibitor cocktail (Cell Signaling, cat. no. 5871S), phosphatase inhibitor cocktail (Cell Signaling, cat. no. 5870S), and PMSF (Fisher Scientific, cat. no. ICN19538101). Plates were then placed on ice for ten minutes, swirling each plate intermittently. Aliquots of protein lysates were prepared and then stored at −80° C. until protein quantification and Western blot analysis was to be conducted. […]

H1975 cells = conditions: NSCLC H1975, 30 minutes, 3 hours, 24 hours
Text: as §1, §2, §3

BT20 cells = conditions: Breast BT20, 30 minutes, 3 hours, 24 hours
Text: as §1, §2, §3

H2087 cells = conditions: NSCLC H2087, 30 minutes, 3 hours, 24 hours
Text: as §1, §2, §3

BHY cells = conditions: Head and neck BHY, 30 minutes, 3 hours, 24 hours
Text: as §1, §2, §3

BxPC3 cells = conditions: Pancreatic BxPC3, 30 minutes, 3 hours, 24 hours
Text: as §1, §2, §3

A253 cells = conditions: Head and neck A253, 30 minutes, 3 hours, 24 hours
Text: as §1, §2, §3

CAL27 cells = conditions: Head and neck CAL27, 30 minutes, 3 hours, 24 hours
Text: as §1, §2, §3

KYSE410 cells = conditions: Head and neck KYSE410, 30 minutes, 3 hours, 24 hours
Text: as §1, §2, §3

Calu6 cells = conditions: NSCLC Calu6, 30 minutes, 3 hours, 24 hours
Text: as §1, §2, §3

A375 cells = conditions: Melanoma A375, 30 minutes, 3 hours, 24 hours
Text: as §1, §2, §3

H520 cells = conditions: NSCLC H520, 30 minutes, 3 hours, 24 hours
Text: as §1, §2, §3

Measured: PD-L1 Response

B1: IFNγ: human IFNγ, modulator (10 ng/ml; Sigma Aldrich) (protein, UniProt P01579 24-161, looked up)
Interferon gamma: QDPYVKEAENLKKYFNAGHSDVADNGTLFLGILKNWKEESDRKIMQSQIVSFYFKLFKNFKDDQSIQKSVETIKEDMNVKFFNSNKKKRDDFEKLTNYSVTDLNVQRKAIHELIQVMAELSPAAKTGKRKRSQMLFRG
Up: all assays above
